According to patent US20240383996A1 (SHANGHAI HENLIUS BIOTECH, published 2024):
Where a chain is given by its changes, count along the chain named.

Tests used:
[1] = biological target: T1, Human OX40 expressed on transfected Jurkat or CHO cells (human, UniProt P43489 29-277); assay: flow cytometry, whole cell binding to human OX40-expressing Jurkat cells, Alexa Fluor488 anti-human IgG Fc, Geo MFI
T1 construct: also called human OX40/Jurkat; human OX40/CHO
T1 sequence: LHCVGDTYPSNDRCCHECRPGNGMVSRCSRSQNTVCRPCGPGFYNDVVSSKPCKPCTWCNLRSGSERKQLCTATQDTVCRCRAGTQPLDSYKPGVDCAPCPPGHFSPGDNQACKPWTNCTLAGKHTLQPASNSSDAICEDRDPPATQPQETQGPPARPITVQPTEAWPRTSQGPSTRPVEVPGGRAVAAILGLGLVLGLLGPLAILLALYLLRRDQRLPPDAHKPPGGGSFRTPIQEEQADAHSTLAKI

[2] = biological target: T1, Human OX40 expressed on transfected …; assay: flow cytometry on human OX40-transfected Jurkat cells, Alexa Fluor488 anti-human IgG Fc, Geo MFI
Method: FIGS. 2A-2C depict whole cell binding of humanized anti-OX40 antibodies to human or cynomolgus OX40 assessed by flow cytometry. Human OX40-expressing Jurkat cells (FIG. 2A), human OX40-expressing CHO cells (FIG. 2B) and cynomolgus OX40-expressing CHO cells (FIG. 2C) were incubated with indicated anti-OX40 bivalent antibodies, and then stained with Alexa Fluor488 conjugated anti-human IgG Fc antibody. The fluorescence intensity was measured by flow cytometry.
(§1) Bivalent antibodies of these 15 clones were made by fusing VHH to human IgG1 Fc, expressed in ExpiCHO cells, and purified by Protein A affinity column. Binding affinity of the VHH-Fc bivalent antibodies to human or cynomolgus OX40 was evaluated by flow cytometry using Jurkat cells transfected with human OX40 (human OX40/Jurkat) (FIG. 2A), CHO cells transfected with human OX40 (human OX40/CHO) (FIG. 2B), and CHO cells transfected with cynomolgus OX40 (cyno OX40/CHO) (FIG. 2C). These antibodies with indicated concentrations were incubated with the cells in FACS buffer (3% FBS in PBS) on ice for 30 min, and the free antibodies were washed out with FACS buffer. Alexa fluor488 conjugated anti-human IgG Fc antibody (1:500) (Alexa Fluor488 AffiniPure goat anti-human IgG, Fcg fragment specific, Jackson labs) was further incubated with the cells on ice for 30 min. Cells were washed to remove free antibodies prior to FACS analysis using CytoFlex (Beckman Coulter). Binding affinity was calculated using GraphPad Prism three parameter logistic equation.

[3] = biological target: T2, Recombinant human OX40 extracellular domain fused to human IgG1 Fc (human, UniProt P43489 29-214); assay: Octet, human OX40 ECD-Fc immobilized on a biosensor chip
T2 construct: Produced in-house; also called OX40 ECD-Fc; human OX40 ECD-Fc; not shown: human IgG1 Fc
T2 sequence: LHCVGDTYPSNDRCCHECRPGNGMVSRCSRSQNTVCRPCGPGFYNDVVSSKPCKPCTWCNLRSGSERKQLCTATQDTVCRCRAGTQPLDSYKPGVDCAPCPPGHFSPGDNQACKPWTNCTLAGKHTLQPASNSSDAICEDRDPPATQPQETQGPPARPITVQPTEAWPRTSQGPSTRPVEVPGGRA
Excerpt: The tetravalent antibodies were produced from transiently transfected ExpiCHO cells, and purified by Protein A affinity column.

[4] = biological target: T1, Human OX40 expressed on transfected …; assay: flow cytometry on human OX40-expressing CHO cells, Geo MFI
Method: (§2) FIGS. 4A-4D depict whole cell binding of anti-OX40 antibodies to human and cynomolgus OX40 assessed by flow cytometry.
as §1
(§3) The binding affinity of the anti-OX40 antibodies was further evaluated by flow cytometry using human OX40/Jurkat cells and human OX40/CHO cells using protocols described above. […] The cross-reactivity of the antibodies to cynomolgus OX40 was assessed by FACS analysis using cyno OX40/CHO cells.

[5] = biological target: T1, Human OX40 expressed on transfected …; assay: flow cytometry on human OX40-expressing Jurkat cells, Geo MFI
Method: as §2, §1, §3

[6] = biological target: T3, Cynomolgus OX40 expressed on transfected CHO cells (cynomolgus); assay: flow cytometry on cynomolgus OX40-expressing CHO cells, Geo MFI
T3 chain: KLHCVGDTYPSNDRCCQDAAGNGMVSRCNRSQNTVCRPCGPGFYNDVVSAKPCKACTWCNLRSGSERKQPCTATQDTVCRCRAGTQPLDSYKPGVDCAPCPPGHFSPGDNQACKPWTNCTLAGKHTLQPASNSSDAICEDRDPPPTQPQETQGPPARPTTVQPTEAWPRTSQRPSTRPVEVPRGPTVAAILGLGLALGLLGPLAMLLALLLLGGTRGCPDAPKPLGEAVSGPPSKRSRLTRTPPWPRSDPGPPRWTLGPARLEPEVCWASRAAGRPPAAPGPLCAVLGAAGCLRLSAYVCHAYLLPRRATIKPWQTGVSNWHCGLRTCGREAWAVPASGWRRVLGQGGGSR
Method: as §2
as §1, with “Cells were washed to remove free antibodies prior to FACS analysis using CytoFlex (Beckman Coulter).” left out
as §3

[7] = biological target: T1, Human OX40 expressed on transfected …; assay: flow cytometry, whole cell binding to human OX40-expressing Jurkat cells, Geo MFI
[8] = biological target: T1, Human OX40 expressed on transfected …; assay: as above; remark: listed apart in the source
[9] = biological target: T4, Human CTLA4 expressed on transfected CHO or Jurkat cells (human, UniProt P16410 36-222); assay: flow cytometry, whole cell binding to human CTLA4-expressing CHO cells, Alexa Fluor488 anti-human IgG Fc, Geo MFI
T4 construct: also called human CTLA4/CHO; human CTLA4/Jurkat
T4 sequence: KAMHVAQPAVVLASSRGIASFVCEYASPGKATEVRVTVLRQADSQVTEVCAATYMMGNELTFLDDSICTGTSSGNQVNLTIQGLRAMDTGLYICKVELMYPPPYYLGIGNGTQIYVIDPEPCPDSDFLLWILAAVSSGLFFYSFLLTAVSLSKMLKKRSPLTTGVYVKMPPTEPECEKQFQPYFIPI

Fc-fused mouse OX40 ECD = biological target: T5, Fc-fused mouse OX40 ECD (mouse, UniProt P47741 20-211); assay: ELISA: plate coated with Fc-fused mouse OX40 ECD, biotin-labeled c5E10, HRP-avidin, OD450
T5 construct: extracellular domain; also called recombinant mouse OX40 ECD; not shown: Fc
T5 sequence (looked up): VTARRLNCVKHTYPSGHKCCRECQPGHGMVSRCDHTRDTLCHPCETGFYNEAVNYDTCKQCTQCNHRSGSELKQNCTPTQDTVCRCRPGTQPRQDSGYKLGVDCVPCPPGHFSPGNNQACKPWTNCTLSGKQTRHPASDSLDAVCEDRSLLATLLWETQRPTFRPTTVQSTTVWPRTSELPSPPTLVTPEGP
Method: The protein was expressed in ExpiCHO cells, and purified by Protein A affinity chromatography. […] Briefly, 1 μg/ml of Fc-fused human or mouse OX40 ECD was coated in a 96-well high binding plate at 4° C. overnight.

[10] = biological target: T2, Recombinant human OX40 extracellular …; assay: ELISA of VHH supernatants on plates pre-coated with human OX40 ECD-Fc or human OX40 ECD-His
Excerpt: Colonies were picked and cultured in 2×YT medium with IPTG to secrete VHH antibodies. Supernatants with VHH antibodies were screened by ELISA using human OX40 ECD-Fc or human OX40 ECD-His pre-coated plates.

B1: Ipilimumab (anti-CTLA4 antibody) (antibody, V domains shown)
VH: QVQLVESGGGVVQPGRSLRLSCAASGFTFSSYTMHWVRQAPGKGLEWVTFISYDGNNKYYADSVKGRFTISRDNSKNTLYLQMNSLRAEDTAIYYCARTGWLGPFDYWGQGTLVTVSS
VL: not shown
[1]
  binding result: no binding

B2: 4H2 VHH-Fc bivalent antibody (antibody, human IgG1, V domains shown)
VH: EVQLVESGGGLVQPGGSLRLSCAASGPLGYPSIAWFRQAPGKGLEFVSGIAWSTGDTYYADSVKGRFTISRDNSKNTLYLQMNSLRAEDTAVYYCAADTVVHYMGRHDIRDAEEYDYWGQGTLVTVSS
notes: Humanized VHH fused to human IgG1 Fc
[2]
  binding result: binds

B3: 1B3 VHH-Fc bivalent antibody (antibody, human IgG1, V domains shown)
VH: B2 VH with Y30M, V100Q, A112R
notes: also called 1B3-bivalent
[3]
  Kd: 3.83 nM
  koff: 0.000391 s⁻¹
[4]
  EC50: 2.69 nM
[5]
  EC50: 4.25 nM

B4: 1B3 tetravalent anti-OX40 antibody (1B3 VHH with GS linker on CH1 and on CL of human IgG1) (antibody, V domains shown)
V domain 1: B2 VH with Y30M, V100Q, A112R
V domain 2: B2 VH with Y30M, V100Q, A112R
notes: Four-chain format; The heavy and light variable regions of human IgG1 are replaced by the VHH
[3]
  Kd: 6.57 nM
  koff: 0.000646 s⁻¹
[4]
  EC50: 2.01 nM
[6]
  EC50: 1.93 nM
[7]
  EC50: 0.15 nM
[5]
  EC50: 0.16 nM

B5: 4A6B VHH-Fc bivalent antibody (antibody, human IgG1, V domains shown)
VH: B2 VH with S32L, T54D, A112R, E113S
notes: as for B2
[2]
  binding result: binds

B6: 3B8 VHH-Fc bivalent antibody (antibody, human IgG1, V domains shown)
VH: B2 VH with Y30Q, T54S, V100R, A112R
notes: as for B2
[2]
  binding result: binds

B7: 1C8 VHH-Fc bivalent antibody (antibody, human IgG1, V domains shown)
VH: B2 VH with Y30L, S53E, T54G, A112Y
notes: as for B2
[2]
  binding result: binds

B8: 2B7 tetravalent anti-OX40 antibody (2B7 VHH with GS linker on CH1 and on CL of human IgG1) (antibody, V domains shown)
V domain 1: B2 VH with Y30A, V100S, A112Y
V domain 2: B2 VH with Y30A, V100S, A112Y
[8]
  EC50: 0.39 nM
[3]
  Kd: 6.94 nM
  koff: 0.000763 s⁻¹
[4]
  EC50: 1.96 nM
[6]
  EC50: 1.98 nM
[7]
  EC50: 0.14 nM
[5]
  EC50: 0.2 nM

B9: 1F4B VHH-Fc bivalent antibody (antibody, human IgG1, V domains shown)
VH: B2 VH with Y30T, G49A, T54Q, A112E
notes: as for B2
[2]
  binding result: binds

B10: 4E8 VHH-Fc bivalent antibody (antibody, human IgG1, V domains shown)
VH: B2 VH with I33F, T54S, H102G, A112L
notes: as for B2
[2]
  binding result: binds

B11: 1E6 VHH-Fc bivalent antibody (antibody, human IgG1, V domains shown)
VH: B2 VH with Y30L, R106Q, A112R, E113V
notes: as for B2
[2]
  binding result: binds

B12: 4D10 VHH-Fc bivalent antibody (antibody, human IgG1, V domains shown)
VH: B2 VH with S32F, A112R
notes: as for B2
[2]
  binding result: binds

B13: 1G9B VHH-Fc bivalent antibody (antibody, human IgG1, V domains shown)
VH: B2 VH with S32H, T54G, T57S, V100L, R110S, A112R
notes: as for B2
[2]
  binding result: binds

B14: 2B7 VHH-Fc bivalent antibody (antibody, human IgG1, V domains shown)
VH: B2 VH with Y30A, V100S, A112Y
notes: also called 2B7-bivalent
[3]
  Kd: 3.68 nM
  koff: 0.000398 s⁻¹
[4]
  EC50: 3.11 nM
[5]
  EC50: 9.79 nM

B15: 4F5 VHH-Fc bivalent antibody (antibody, human IgG1, V domains shown)
VH: B2 VH with Y30L, A51V, T54G, V100K, H107F, A112L
notes: as for B2
[2]
  binding result: binds

B16: 2D9 VHH-Fc bivalent antibody (antibody, human IgG1, V domains shown)
VH: B2 VH with S32N, A112R, E114V
notes: as for B2
[2]
  binding result: binds

B17: 2D3B VHH-Fc bivalent antibody (antibody, human IgG1, V domains shown)
VH: B2 VH with Y30S, G105V, A112R, E114S
notes: as for B2
[2]
  binding result: binds

B18: 1B7 VHH-Fc bivalent antibody (antibody, human IgG1, V domains shown)
VH: B2 VH with Y30E, T54S, A112R
notes: as for B2
[2]
  binding result: binds

B19: c5E10 chimeric bivalent antibody (llama VHH clone 5E10 fused to human IgG1 Fc) (antibody, V domains shown)
VH: QVKLEESGGGSVQSGGSLRLACSASGPLGYPSIAWFRQVTGKDQEFVAGIAWSGGDTYYADSVKGRFAISRDTDRNTVELQMNNLKPEDTAVYYCAADTVVHYMGRHDIRDREEYDHWGQGTQVTVSS
notes: Bivalent VHH-Fc, human IgG1 Fc; also called c5E10-Fc; c5E10-bi
[9]
  binding result: no binding
Fc-fused mouse OX40 ECD
  binding result: no binding

B20: 5E10 llama VHH (VHH)
VHH: B19 VH with Q120P
notes: VHH secreted into the culture supernatant from phagemid pADL-23c; also called c5E10 VHH
[10]
  binding result: binds
